Patent US20090221680, “Aptamers that bind thrombin with high affinity” (published 2009)
Positions count from the first letter of the chain named.

How the values were obtained:
[1] = target: thrombin (alpha-thrombin) (Homo sapiens, UniProt P00734;P00734 P00734:315-363,P00734:364-622); experiment: filter; 10 nM thrombin
[2] = target: prothrombin (Homo sapiens, UniProt P00734 P00734:44-622); experiment: filter; 50 nM prothrombin; conditions: tags: Athens Research
Experimental: Dot blot binding assays were performed throughout the selections to monitor the protein binding affinity of the pools. Trace ³²P-labeled RNA was combined with a dilution series of human Thrombin (1 nM-1000 nM) and incubated at room temperature for 30 minutes in 1×DPBS (w/ Ca²⁺ and Mg²⁺) (Gibco, Catalog #14040, Invitrogen, Carlsbad, Calif.) plus 0.1 mg/ml BSA in a final volume of 30 μl. The binding reactions were analyzed by nitrocellulose filtration using a Minifold I dot-blot, 96-well vacuum filtration manifold (Schleicher & Schuell, Keene, N.H.). A three-layer filtration medium was used, consisting (from top to bottom) of Protran nitrocellulose (Schleicher & Schuell, Keene, N.H.), Hybond-P nylon (Amersham Biosciences, Piscataway, N.J.) and GB002 gel blot paper (Schleicher & Schuell, Keene, N.H.). RNA that is bound to protein is captured on the nitrocellulose filter, whereas the non-protein bound RNA is captured on the nylon filter. The gel blot paper was included simply as a supporting medium for the other filters. Following filtration, the filter layers were separated, dried and exposed on a phosphor screen (Amersham Biosciences, Piscataway, N.J.) and quantified using a Storm 860 Phosphorimager® blot imaging system (Amersham Biosciences, Piscataway, N.J.).
Based on pool binding monitored throughout the selections as described above, Round 9 Pools from both Selection #2 and #3 were also cloned using a TOPO TA Cloning kit (Invitrogen, Carlsbad, Calif.) according to manufacturer's instructions, and sequenced. Of the 136 sequences obtained from Round 9 of both selections, 130 unique sequences were selected for assaying in a single-point dot blot screen against thrombin and prothrombin to test for selective binding to thrombin. Clones were ordered from IDT (Coralville, Iowa) at 25 μmole synthesis scale. Clone transcripts were 5′ end labeled with γ̅³²P ATP and spin purified with Centrisep columns (Princeton Separations, Adelphia, N.J.) to remove excess label. Trace amounts of labeled clone were incubated with +/−10 nM Thrombin (or +/−50 nM prothrombin) and 0.1 mg/ml BSA in a total volume of 30 μl 1×DPBS (w/ Ca²⁺ and Mg²⁺) (Gibco, Catalog #14040, Invitrogen, Carlsbad, Calif.) for 30 minutes. Post incubation, the binding reaction applied the dot-blot binding assay apparatus previously described.

B1: AMX(398)_E1 (ssDNA)
DNA: TCCCATCGATCCGGGGTATTCTTATTTCTGGGTGGCTGAGGATCGATC
With B1 the binding signal [1] was 23.4 % bound and the binding signal [2] was 20.9 % bound.

B2: AMX(399)_D8 (ssDNA)
DNA: TCTCGATCGGACGTGGTGGGTTACTGGCTTGGGTGGCTGAGGATCGATC
With B2 the binding signal [1] was 22.2 % bound and the binding signal [2] was 19.6 % bound.

B3: AMX(399)_E4 (ssDNA)
DNA: TCCCATCGAACCGCGGGTAATCTTATGGGTCGGGTGGCTGAGGATCGATC
B3 was tested, and the binding signal [1] was 7.5 % bound and the binding signal [2] was 7.29 % bound.

B4: AMX(399)_D7 (ssDNA)
DNA: TCCCTCGATCTAAGGTGCTTTTAGTGGTTTGGGTGGCTGAGGATCGATC
B4 showed a binding signal [1] of 7.59 % bound and a binding signal [2] of 24.9 % bound.

B5: AMX(398)_E6 (ssDNA)
DNA: TCCCATCGAGACGGGGTGTCTTTTGTGGCTTGGGTGGCTGAGGATCGATC
B5 gave a binding signal [1] of 29.5 % bound and a binding signal [2] of 30.3 % bound.

B6: AMX(399)_C7 (ssDNA)
DNA: TCCCGAGCGATCGGGGTGGTTTTTTGGGAGTGGGTGGCTGAGGATCGATC
In the case of B6, the binding signal [1] is reported as 6.8 % bound and the binding signal [2] is reported as 6.94 % bound.

B7: AMX(399)_D4 (ssDNA)
DNA: TCCCGATTGATTCTGGGAGGTTTGGTTCTGGGTGGCTGAGGATCGATC
With B7 the binding signal [1] was 10.4 % bound and the binding signal [2] was 9.02 % bound.

B8: AMX(399)_D9 (ssDNA)
DNA: TCCCAGGATCGATTCTGGTATTGTTGGTGGGGGTGGCTGAGGATCGATC
Binder B8 has a binding signal [1] of 20.3 % bound and a binding signal [2] of 19.7 % bound.

B9: AMX(398)_E7 (ssDNA)
DNA: TCCCTTGATCTGGGGTGCGTTATTGTGGTTCGGGTGGCTGAGGATCGATC
B9 showed a binding signal [1] of 27.9 % bound and a binding signal [2] of 20.3 % bound.

B10: AMX(398)_D7 (ssDNA)
DNA: TCCCTTGTCGATTCTGGTATGTTTTGGTCCGGGTGGCTGAGGATCGATC
B10 gave a binding signal [1] of 35 % bound and a binding signal [2] of 34.6 % bound.

B11: AMX(399)_C8 (ssDNA)
DNA: TCCCGTCGATCAGGGGTAATTTGCTGGTGGTGGGTGGCTGAGGATCGATC
B11 showed a binding signal [1] of 36.8 % bound and a binding signal [2] of 33.8 % bound.

B12: AMX(399)_D12 (ssDNA)
DNA: TCCCATCGATCTGTGGTCTTTTTTGGTGTGGGTGGCTGAGGATCGATC
B12 gave a binding signal [1] of 32.6 % bound and a binding signal [2] of 32.2 % bound.

B13: AMX(398)_E5 (ssDNA)
DNA: TCCCGATCGGACGTGGTGGGTTACTTCTGGGTGGCTGAGGATCGATC
B13 was tested, and the binding signal [1] was 25.6 % bound and the binding signal [2] was 25.4 % bound.

B14: AMX(399)_D3 (ssDNA)
DNA: TCCCGCGATCTCTGGGGTAACGTTTTGGTGTGGGTGGCTGAGGATCGATC
Work on B14 yielded a binding signal [1] of 21.7 % bound and a binding signal [2] of 25.3 % bound.

B15: AMX(399)_E3 (ssDNA)
DNA: TCCCGATTTCGATTCTGGTAGTGTTTTCTGGGTGGCTGAGGATCGATC
B15 was tested, and the binding signal [1] was 13 % bound and the binding signal [2] was 13.3 % bound.

B16: AMX(399)_C9 (ssDNA)
DNA: TTCCTGTCGATAAGGGGTATTATAGTGGTGTGGGTGGCTGAGGATCGATC
In the case of B16, the binding signal [1] is reported as 11.2 % bound and the binding signal [2] is reported as 10.9 % bound.

B17: AMX(398)_F5 (ssDNA)
DNA: TCCCGATCGAGAGTGGTATTTGTTTTCTGGGTGGCTGAGGATCGATC
B17 showed a binding signal [1] of 21.3 % bound and a binding signal [2] of 19.4 % bound.

B18: AMX(398)_C12 (ssDNA)
DNA: TCCCTGCAATCGGTGCTCGAGAGGTTGGGTGGGTGGCTGAGGATCGATC
With B18 the binding signal [1] was 22.8 % bound and the binding signal [2] was 15.5 % bound.

B19: AMX(399)_D6 (ssDNA)
DNA: TCCCGCATTGAATAGGACTCAGGGATGGTGTGGGTGGCTGAGGATCGATC
With B19 the binding signal [1] was 22.7 % bound and the binding signal [2] was 22 % bound.

B20: AMX(399)_E5 (ssDNA)
DNA: TCCCATCGAGCCGGGTATGTTTCGTTGGGCTGGGTGGCTGAGGATCGATC
Work on B20 yielded a binding signal [1] of 15 % bound and a binding signal [2] of 12.5 % bound.

B21: AMX(398)_F2 (ssDNA)
DNA: TCCCATCGAGTCGTGGTGTTTTGTTGGCCTGGGTGGCTGAGGATCGATC
With B21 the binding signal [1] was 8.76 % bound and the binding signal [2] was 8.81 % bound.

B22: AMX(398)_D3 (ssDNA)
DNA: TCCCATGATCGGGTCGGTATTTGTTGGTCAGGGTGGCTGAGGATCGATC
For B22, the binding signal [1] was 20 % bound and the binding signal [2] was 20.8 % bound.

B23: AMX(399)_B10 (ssDNA)
DNA: TCCCATTGATCCGGGGTGGTTTTCTGGTTTGGGTGGCTGAGGATCGATC
B23 showed a binding signal [1] of 24.4 % bound and a binding signal [2] of 23.6 % bound.

B24: AMX(399)_D10 (ssDNA)
DNA: B23 DNA with T7C, C12T, G14T, C24G
In the case of B24, the binding signal [1] is reported as 38.8 % bound and the binding signal [2] is reported as 40.8 % bound.

B25: AMX(398)_E12 (ssDNA)
DNA: TCCCGGATCTGTGGTAGGTTTGTTGGGTTGGGTGGCTGAGGATCGATC
B25 gave a binding signal [1] of 40.4 % bound and a binding signal [2] of 39.9 % bound.

B26: AMX(399)_B12 (ssDNA)
DNA: TCCCATCGATTTGTCCTCAGAGGTTGGCGTGGGTGGCTGAGGATCGATC
With B26 the binding signal [1] was 24.2 % bound and the binding signal [2] was 15.3 % bound.

B27: AMX(399)_E9 (ssDNA)
DNA: TCCCATCGATACGGGGTGGAATCTTGGGGTGGGTGGCTGAGGATCGATC
B27 was tested, and the binding signal [1] was 14.8 % bound and the binding signal [2] was 13.8 % bound.

B28: AMX(399)_B9 (ssDNA)
DNA: TCCTGTCGATCCCTACGGGTAGTGTTGGTTTGGGTGGCTGAGGATCGATC
B28 gave a binding signal [1] of 14.7 % bound and a binding signal [2] of 14.3 % bound.

B29: AMX(398)_D5 (ssDNA)
DNA: TCCCAGCGGTCCTAATGGGTAGTGTTGGTTTGGGTGGCTGAGGATCGATC
In the case of B29, the binding signal [1] is reported as 12 % bound and the binding signal [2] is reported as 12.9 % bound.

B30: AMX(399)_E10 (ssDNA)
DNA: TCCCGATTGTCATAGGTGGTTTGTCTGGGTAGGGTGGCTGAGGATCGATC
B30 gave a binding signal [1] of 29.8 % bound and a binding signal [2] of 28.9 % bound.

B31: AMX(399)_D11 (ssDNA)
DNA: TCCCAGAGAGCCGGGGTATAATTGTGGTGTGGGTGGCTGAGGATCGATC
Binder B31 has a binding signal [1] of 41.3 % bound and a binding signal [2] of 39.5 % bound.

B32: AMX(398)_F6 (ssDNA)
DNA: TCCCTTGATCCGGTGGTAGTTTTATTGGTGCGGGTGGCTGAGGATCGATC
Binder B32 has a binding signal [1] of 23.9 % bound and a binding signal [2] of 24.6 % bound.

B33: AMX(399)_C12 (ssDNA)
DNA: TCCCGATCTATCCGGGGTACATTTGTGGTTTGGGTGGCTGAGGATCGATC
Work on B33 yielded a binding signal [1] of 18.7 % bound and a binding signal [2] of 17.2 % bound.

B34: AMX(399)_E1 (ssDNA)
DNA: TCCCACGATCCGGGGTGTCTTTCGTGGGCTGGGTGGCTGAGGATCGATC
In the case of B34, the binding signal [1] is reported as 37.6 % bound and the binding signal [2] is reported as 39.1 % bound.

B35: AMX(399)_C10 (ssDNA)
DNA: TCTCATTCGTTCCGGGGTATTTAGTGGGTCGGGTGGCTGAGGATCGATC
Binder B35 has a binding signal [1] of 35.4 % bound and a binding signal [2] of 34.3 % bound.

B36: AMX(398)_D1 (ssDNA)
DNA: TCCCGATTTGAGTTTAGTAGGGTGGGTAGGATGGTGGCTGAGGATCGATC
In the case of B36, the binding signal [1] is reported as 20.7 % bound and the binding signal [2] is reported as 11.8 % bound.

B37: AMX(399)_B11 (ssDNA)
DNA: TCCCGTCGATTCGGTATGGTTTCGTTTCTGGGTGGCTGAGGATCGATC
B37 showed a binding signal [1] of 18.7 % bound and a binding signal [2] of 18.2 % bound.

B38: AMX(398)_E8 (ssDNA)
DNA: TCCCTATCGACCGGGGTTCTTTCGTGGTTCGGGTGGCTGAGGATCGATC
B38 was tested, and the binding signal [1] was 26.4 % bound and the binding signal [2] was 26.7 % bound.
